The values that follow come from the supplement of paper PMC9732359.

± gives the uncertainty stated by the source.

A short description of this data set: protein stability index of a GFP-peptide fusion (yeast GPS) (PSI 1-4); higher = more stable; sorted into four equal gates, so the index is relative within each strain. In a few lines:
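Yeast carrying a pooled library were grown to mid-log phase in leucine-free medium. Each library plasmid expresses Cherry and has a tiled 17-residue yeast protein peptide fused downstream of GFP. Cells were sorted into four equal gates by GFP/Cherry ratio, and plasmids from each gate were PCR-amplified, Illumina-sequenced and assigned to strains by barcode. Summing, across gates, the read frequency times the gate number gave each peptide's protein stability index.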

As for SSPLGFEETKLSTTPTK [SIR4], the protein stability index is 2.57 ± 0.053 (doa10∆), 2.71 ± 0.063 (pdr5∆), 2.6 ± 0.054 (san1∆) and 2.67 ± 0.058 (ubr1∆).

Consider ALIENWAADSVSSRVRG [FAS1], for which the protein stability index is, setting by setting: (doa10∆) 3.45 ± 0.12; (pdr5∆) 3.1 ± 0.14; (san1∆) 2.84 ± 0.082; (ubr1∆) 3.34 ± 0.075.

For NNNNNNNNNSTRPQMPS [GRR1], the protein stability index runs as follows: (doa10∆) 2.891 ± 0.019; (pdr5∆) 3.041 ± 0.017; (san1∆) 3.062 ± 0.018; (ubr1∆) 3.027 ± 0.018.

Take GRVKALEQFMERNNIGE [YDL116W/NUP84]: the protein stability index reads like this: (doa10∆) 2.78 ± 0.12; (pdr5∆) 2.68 ± 0.08; (san1∆) 2.75 ± 0.15; (ubr1∆) 3.07 ± 0.1.

As for QQQRRQLTPQQQQLVNQ [GAL11], the protein stability index by setting is: (doa10∆) 2.72 ± 0.049; (pdr5∆) 3 ± 0.05; (san1∆) 2.8 ± 0.038; (ubr1∆) 3 ± 0.049.

In the case of CSPWSLQISDIPAAGNN [SRB5], the protein stability index (doa10∆) worked out at 2.07 ± 0.04, the protein stability index (pdr5∆) is 2.21 ± 0.04, the protein stability index (san1∆) was determined as 1.96 ± 0.055 and the protein stability index (ubr1∆) stood at 2.41 ± 0.032.

As for QLDLCKLYFQLFLNTGC [SRP68], the protein stability index turned out to be 2.01 ± 0.038 (doa10∆), 1.4 ± 0.042 (pdr5∆), 1.45 ± 0.092 (san1∆) and 1.7 ± 0.037 (ubr1∆).

NNTVDPGFDEFQLIDMK [CSI1]: the protein stability index (doa10∆) came out at 3.18 ± 0.064, the protein stability index (pdr5∆) stood at 3.12 ± 0.062, the protein stability index (san1∆) stood at 3.31 ± 0.038 and the protein stability index (ubr1∆) was 3.21 ± 0.041.

With WRSKRIEQLFPVRPVRV [RPC53], the protein stability index is, setting by setting: (doa10∆) 3.25 ± 0.14; (pdr5∆) 3.11 ± 0.087; (san1∆) 3.21 ± 0.071; (ubr1∆) 3.08 ± 0.069.

Consider TGRLFQVEYALEAIKQG [PRE5], for which the protein stability index (doa10∆) came to 2.94 ± 0.11, the protein stability index (pdr5∆) came out at 2.5 ± 0.15, the protein stability index (san1∆) worked out at 3.16 ± 0.17 and the protein stability index (ubr1∆) is 2.26 ± 0.12.

With AQGDPNLEPLIAKLVAV [NUT1], the protein stability index reads like this: (pdr5∆) 1.87 ± 0.13; (san1∆) 3.08 ± 0.19; (ubr1∆) 1.07 ± 0.088.

With EFKSIEIEMKNKLEKLN [SMC4], the protein stability index was determined as 1.68 ± 0.058 (doa10∆), 1.51 ± 0.075 (pdr5∆), 1.42 ± 0.19 (san1∆) and 1.37 ± 0.046 (ubr1∆).

Turning to VKDKQSKVSDDSESESG [RPN8], the protein stability index reads like this: (doa10∆) 1.97 ± 0.11; (pdr5∆) 2.78 ± 0.13; (ubr1∆) 2.9 ± 0.13.

As for NIVNDFTPEEEAAIRRE [SKP1], the protein stability index came out at 2.28 ± 0.14 (doa10∆), 2.73 ± 0.079 (pdr5∆), 3.08 ± 0.13 (san1∆) and 3.02 ± 0.086 (ubr1∆).

On to ASSSPSSTDFSTCIVSL [ECM29], for which the protein stability index worked out at 2.81 ± 0.081 (doa10∆), 2.26 ± 0.07 (pdr5∆), 2.01 ± 0.1 (san1∆) and 1.84 ± 0.059 (ubr1∆).

For the sequence LCLTEFENCYLEGNDIH [FAS1], the protein stability index is, setting by setting: (doa10∆) 3.02 ± 0.089; (pdr5∆) 3.26 ± 0.076; (san1∆) 3.2 ± 0.13; (ubr1∆) 2.95 ± 0.1.

On to QRKNIQSLELMIYDDAH [BRR2], for which the protein stability index (doa10∆) was 2.39 ± 0.047, the protein stability index (pdr5∆) was determined as 2.61 ± 0.051, the protein stability index (san1∆) was found to be 2.54 ± 0.066 and the protein stability index (ubr1∆) was 2.46 ± 0.049.

EGIKETQAKRIFLQQFL [SWI1]: the protein stability index was found to be 2.37 ± 0.12 (doa10∆), 2.75 ± 0.14 (pdr5∆), 2.74 ± 0.086 (san1∆) and 2.26 ± 0.066 (ubr1∆).

As to YKEIRDVSRVAAVETLY [RPL20A], the protein stability index is, setting by setting: (doa10∆) 1.95 ± 0.067; (pdr5∆) 2.19 ± 0.081; (san1∆) 1.75 ± 0.17; (ubr1∆) 1.64 ± 0.069.

Regarding EDVDDEELDITPLFPID [IRR1], the protein stability index amounted to 2.99 ± 0.19 (doa10∆), 3.36 ± 0.15 (pdr5∆), 3 ± 0.1 (san1∆) and 2.95 ± 0.075 (ubr1∆).

LSEYDAIQKKDNKDKEG [YOR098C/NUP1] displayed a protein stability index (doa10∆) of 3.35 ± 0.13, a protein stability index (pdr5∆) of 3.33 ± 0.097, a protein stability index (san1∆) of 3.38 ± 0.11 and a protein stability index (ubr1∆) of 3.38 ± 0.067.

On to MTIDLEPIEESSQNNSE [IRR1], for which the protein stability index is, setting by setting: (doa10∆) 2.94 ± 0.068; (pdr5∆) 3.14 ± 0.056; (san1∆) 2.67 ± 0.11; (ubr1∆) 3.09 ± 0.059.

Regarding AGKWSSKYLIKQIDIPN [ECM29], the protein stability index by setting is: (doa10∆) 1.55 ± 0.068; (pdr5∆) 1.86 ± 0.088; (san1∆) 2.15 ± 0.087; (ubr1∆) 2.05 ± 0.049.

As to PKELVPSHEKLKESYSQ [CDC53], the protein stability index runs as follows: (doa10∆) 3.13 ± 0.077; (pdr5∆) 3.02 ± 0.067; (san1∆) 2.51 ± 0.14; (ubr1∆) 2.81 ± 0.073.

On to GVHTGQFIYAGKKASLN [RPL2A], for which the protein stability index came to 3.51 ± 0.19 (pdr5∆), 3.15 ± 0.1 (san1∆) and 3.4 ± 0.12 (ubr1∆).

For the sequence DLSSAASASGAAGAGAA [FAS2], the protein stability index was determined as 1.78 ± 0.13 (doa10∆), 1.51 ± 0.11 (pdr5∆) and 1.66 ± 0.19 (ubr1∆).
